2 molecules from patent US20220403048A1, “BINDING MOLECULES TO ARGINASE II [ARG2]” (Cancer Research Technology Limited, priority 2019, published 2022) can be followed below.

The target of experiment [1] is T1, recombinant human trimeric ARG2 enzyme (Homo sapiens, UniProt P78540, E275H/R327K).
T1 construct: His10 (after a GGG linker) (C); made in house; host or cells: E. coli BL21 (DE3)
T1 sequence (P78540 with tags, fused parts or gaps E275H/R327K): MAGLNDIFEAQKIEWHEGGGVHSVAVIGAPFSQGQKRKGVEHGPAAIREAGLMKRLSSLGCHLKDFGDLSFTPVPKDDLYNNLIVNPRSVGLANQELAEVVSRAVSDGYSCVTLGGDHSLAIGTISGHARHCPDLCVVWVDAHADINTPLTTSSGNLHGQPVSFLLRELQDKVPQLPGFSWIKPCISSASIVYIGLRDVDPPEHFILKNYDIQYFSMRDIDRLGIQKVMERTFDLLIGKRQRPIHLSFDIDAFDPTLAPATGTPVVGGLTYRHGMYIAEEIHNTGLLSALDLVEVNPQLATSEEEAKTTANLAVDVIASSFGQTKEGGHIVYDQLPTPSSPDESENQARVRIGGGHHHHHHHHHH
Briefly: Direct binding HTRF assay, human trimeric ARG2. As to conditions: purified scFv, FIG. 1A. The method, then: Unpurified scFv from periplasmic preparations were screened in a homogeneous time-resolved fluorescence (HTRF™, CisBio Bioassays, France) binding assay using a Pherastar plate reader (BMG Labtech, Germany). In this assay, binding of unpurified scFv to recombinant human trimeric ARG2 enzyme was assessed by measuring the fluorescence resonance energy transfer (FRET) between the c-myc tagged scFv and the biotinylated enzyme using streptavidin cryptate and anti-c-myc-XL665 detection reagents (CisBio International, France; cat: 610SAKLB and 61 MYCXLB respectively). […] Assay plates were incubated overnight at 4° C. prior to reading time resolved fluorescence on a Pherastar plate reader ([…]) using an excitation wavelength of 320 nm and measuring the emission at 620 nm and 665 nm (100 flashes).
Data were analysed by calculating % Delta F values for each sample. % Delta F was determined according to equation 1.
The scFv with unique protein sequences were expressed in E. coli and purified by affinity chromatography (essentially as described (Bannister et al., 2006)). The ARG2 binding profile of each purified scFv was determined by testing a dilution series of the purified scFv in the HTRF™ assay described in section 1.4, substituting the unpurified scFv periplasmic preparation with the purified scFv. […] Data were analysed by calculating the % Delta F values as described in section 1.4. […]
In general terms: In TR-FRET formats the signal depends on donor and acceptor labels being close together.

A further experiment deals with T2, ARG2 (Homo sapiens, UniProt P78540).
T2 sequence (P78540 23-354): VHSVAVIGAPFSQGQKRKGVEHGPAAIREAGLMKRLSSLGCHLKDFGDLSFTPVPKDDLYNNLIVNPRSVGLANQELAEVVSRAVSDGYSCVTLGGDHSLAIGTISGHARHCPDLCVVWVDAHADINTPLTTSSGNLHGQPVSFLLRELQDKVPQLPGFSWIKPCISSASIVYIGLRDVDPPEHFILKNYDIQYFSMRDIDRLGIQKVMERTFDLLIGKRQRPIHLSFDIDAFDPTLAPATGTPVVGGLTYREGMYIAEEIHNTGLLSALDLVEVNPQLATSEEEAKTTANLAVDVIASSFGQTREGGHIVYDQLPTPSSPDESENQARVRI
In words: Size-exclusion chromatography of ARG2-Fab binding stoichiometry. Also noted: human ARG2 (aa23-354); His10 (C); made in house; host or cells: E. coli BL21 (DE3). The note with it: FIG. 23A. The method, then: ARG2 and Fabs were analysed at concentrations of 8 μM (referring to monomers) in SEC buffer containing 25 mM tris at pH 7.4 and 150 mM NaCl. ARG2-Fab complexes were formed by mixing both ARG2 and Fabs at concentrations of 8 μM (referring to monomers) in SEC buffer and incubation on ice for 1 h. For size-exclusion chromatography, […] of sample were injected into a 100 μl loop connected to a Superose 6 Increase 10/300 GL column (GE Healthcare) which was mounted to an AKTAexpress FPLC system (GE Healthcare). The column was equilibrated in SEC buffer, and SEC was performed at a flow rate of 0.5 ml/min. Molecular-weight estimates are based on the retention volumes seen for β-amylase, bovine serum albumin and carbonic anhydrase, which were analysed on the same FPLC system under identical conditions.

B1: C0020065: anti-ARG2 antibody, alternate lead isolation clone, VH SEQ ID NO: 2, VL SEQ ID NO: 7 (antibody, listed as Homo sapiens, V domains shown)
VH: GVNLRESGGGVVQPGRSLRLSCAASGFTFSSYAMHWVRQAPGKGLEWVAVISYDGSNKYYVDSVKGRFTISRDNSKNTLYLQMNSLRAEDTAVYYCARDSSQLWFDYWGRGTLVTVSS
VL: QSVVTQPPSVSGAPGQRVTISCTGSSSNIGTGYDVHWYQQLPGTAPKLLIYGNSNRPSGVPDRFSGSKSGTSASLAITGLQAEDEADYYCQSYDSSLSGSVVFGGGTQLTVL
modifications: C0020065
As for B1, the “binding to biotinylated recombinant human trimeric ARG2 enzyme” value in experiment [1] is recorded as “bound”.

B2: C0021139: anti-ARG2 antibody, VH SEQ ID NO: 212, VL SEQ ID NO: 217 (antibody, listed as Homo sapiens, V domains shown)
VH: EVQLLESGGGLVQPGGSLRLSCAASGFTFQYDYQVWVRQAPGKGLEWVSAISGSGGSTYYADSVKGRFTISRDNSKNTLYLQMNSLRAEDTAVYYCARLRADLGLYMDLWGRGTLVTVSS
VL: QSVLTQPPSVSAAPGQKVTISCSGSSSNIGNHYVSWYQQLPGTAPKLLIYDNSERTSGIPDRFSGSKSGTSATLGITGLQTGDEADYYCGTWDELTSNLVFGGGTKLTVL
modifications: C0021139
Take B2: in the experiment with ARG2 (8 μM each), the “size-exclusion peak of 1:1 molar mixture of ARG2 and Fab” value was determined as 275 kDa. The “Fabs bound to one ARG2 trimer” value with ARG2 (from size-exclusion profile) is “three Fabs”.
